In article PMC10160106, “Symport and antiport mechanisms of human glutamate transporters” (Nature Communications, 2023):

Biological target: the molecule itself
Test: cryo-EM structure; EAAT3-X in 0.01% GDN, 20 mM HEPES-Tris pH 7.4, in 200 mM NaCl and 20 mM L-glutamate, 300 mM KCl, 150 mM NMDG chloride or 300 mM NaCl; maps refined with C3 symmetry, then symmetry expansion and local classification of protomers

B1: MinCys EAAT3 K269C/W441C crosslinked using Hg2+ (EAAT3-X) (natural protein, human, UniProt P43005 1-524, looked up)
chain: MGKPARKGAEWKRFLKNNWVLLSTVAAVVLGITTGVLVREHSNLSTLEKFYFAFPGEILMRMLKLIILPLIISSMITGVAALDSNVSGKIGLRAVVYYFATTLIAVILGIVLVVSIKPGVTQKVGEIARTGSTPEVSTVDAMLDLIRNMFPENLVQAAFQQYKTKREEVKPPSDPEMTMTEESFTAVMTTAISKTKTKEYKIVGMYSDGINVLGLIVFALVFGLVIGKMGEKGQILVDFFNALSDATMKIVQIIMWYMPLGILFLIAGCIIEVEDWEIFRKLGLYMATVLTGLAIHSIVILPLIYFIVVRKNPFRFAMGMAQALLTALMISSSSATLPVTFRCAEENNQVDKRITRFVLPVGATINMDGTALYEAVAAVFIAQLNDLDLGIGQIITISITATSASIGAAGVPQAGLVTMVIVLSAVGLPAEDVTLIIAVDCLLDRFRTMVNVLGDAFGTGIVEKLSKKELEQMDVSSEVNIVNPFALESTILDNEDSDTKKSYVNGGFAVDKSDTISFTQTSQF
modifications: Hg2+ crosslink between C269 and C441
notes: Homotrimer; also called crosslinked EAAT3-X; MiniCys EAAT3 K269C/W441C; source: HEK 293F, transfected, purified (Strep-Tactin, SEC in GDN), crosslinked with HgCl2; not shown: Strep-II, N-terminal, cleaved; GFP, N-terminal, cleaved
stoichiometry N: 3
